# Assay results reported in US20090018059.
# What was measured:
# OCT4 (Homo sapiens) = settings: ChIP-qPCR, human HUES-6 ESCs
# SOX2 (Homo sapiens) = settings: ChIP-qPCR, human HUES-6 ESCs
# Sox2 (Mus musculus) = Sox2 (Mus musculus) (UniProt P48432); settings: ChIP-qPCR, undifferentiated mouse ESCs; 10-fold maximum after 3 days RA, none at 6 days
# [1] = target: Oct4 (Pou5f1) (Mus musculus) (UniProt P20263); settings: ChIP-qPCR, undifferentiated mouse ESCs; 10-fold maximum after 3 days RA, none at 6 days
# Chain of Oct4 (Pou5f1) (Mus musculus) (P20263 whole entry): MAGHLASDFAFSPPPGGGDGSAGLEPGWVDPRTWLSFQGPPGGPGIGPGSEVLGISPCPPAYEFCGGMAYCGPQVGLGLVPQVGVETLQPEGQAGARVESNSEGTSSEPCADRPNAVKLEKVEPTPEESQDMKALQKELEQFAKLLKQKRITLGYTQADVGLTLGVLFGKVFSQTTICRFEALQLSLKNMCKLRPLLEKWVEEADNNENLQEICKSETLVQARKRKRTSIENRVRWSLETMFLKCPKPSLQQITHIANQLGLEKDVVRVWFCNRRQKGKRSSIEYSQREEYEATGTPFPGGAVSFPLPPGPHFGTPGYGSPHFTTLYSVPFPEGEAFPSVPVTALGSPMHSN
# Chain of Sox2 (Mus musculus) (P48432 whole entry): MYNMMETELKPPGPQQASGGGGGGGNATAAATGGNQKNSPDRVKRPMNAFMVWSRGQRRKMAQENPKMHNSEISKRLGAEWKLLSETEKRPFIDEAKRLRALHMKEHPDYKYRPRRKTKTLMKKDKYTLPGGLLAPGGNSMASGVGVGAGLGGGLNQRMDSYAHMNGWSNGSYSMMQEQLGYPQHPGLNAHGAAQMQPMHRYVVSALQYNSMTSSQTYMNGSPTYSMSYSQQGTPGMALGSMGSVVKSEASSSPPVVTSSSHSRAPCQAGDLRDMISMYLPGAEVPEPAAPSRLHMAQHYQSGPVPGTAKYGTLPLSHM
Substance,binding signal (fold enrichment) (OCT4 (Homo sapiens)),binding signal (fold enrichment) (SOX2 (Homo sapiens)),binding signal (fold enrichment) (Sox2 (Mus musculus)),binding signal (fold enrichment) [1]
human NANOG promoter sox-oct region,6,6,,
mouse Nanog promoter oct-sox region (ChIP amplicon 2),,,< 37,< 43
